The record followed here is article PMC5979959.

This assay has as its target human DNAJB6, cytosolic isoform B (human) (UniProt O75190). Put plainly: native gel or EMSA + other: negative stain electron microscopy; DNAJB6 oligomers fractionated by GraFix (5-30% sucrose, 0-0.2% glutaraldehyde gradient, 20 mM NaPO4, 150 mM NaCl, pH 8.0, 4 °C); fraction 5 analysed by blue native-PAGE and negative stain EM with single particle reconstruction.

human DNAJB6, cytosolic isoform B, O75190-2 1-241 (natural protein; other documents disagree on this pair), sequence (O75190 other isoform, or with tags, fused parts or gaps): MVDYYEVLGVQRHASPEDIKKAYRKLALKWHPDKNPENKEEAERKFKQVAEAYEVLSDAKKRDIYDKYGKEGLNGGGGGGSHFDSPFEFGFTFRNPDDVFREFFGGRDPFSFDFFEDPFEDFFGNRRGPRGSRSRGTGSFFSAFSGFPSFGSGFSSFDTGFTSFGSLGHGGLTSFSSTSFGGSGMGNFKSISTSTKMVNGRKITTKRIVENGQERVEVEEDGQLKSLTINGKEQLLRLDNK

Regarding “human DNAJB6, cytosolic isoform B, O75190-2 1-241 (natural protein; other documents disagree on this pair)”, the stoichiometry N was 20 subunits.

The stoichiometry N is the number of molecules, sites or subunits per partner or assembly.
